Measurements: PMC8602370, “HPF1 dynamically controls the PARP1/2 balance between initiating and elongating ADP-ribose modifications”

How the values were obtained:
PARP1 WT;HPF1 = PARP1 WT;HPF1 (human?;human, UniProt P09874;Q9NWY4 1-1014;1-346, |); experiment: fluorescence polarization; 20 uM HPF1; P=0.014; SPR: 25 mM HEPES pH 7.4, 250 mM NaCl, 0.1 mM TCEP, 1 mM EDTA, 0.05% Tween20 (+/- 5 uM EB47); FP: 5 nM probe, 1.56-400 nM PARP1, buffer not stated; HXMS: 10 mM HEPES pD 7.0, 150 mM NaCl, RT; settings: protein: recombinant;recombinant; tags: N-terminal His6;none (SMT sumo-like His-tag removed with ULP1); copies: 1;1; label: internal FAM (GCTGAGC FAM-TTCTGG...); dumbbell, two hairpins, central nick
Sequence of PARP1 WT;HPF1 (P09874 whole entry, chain 1 of 2): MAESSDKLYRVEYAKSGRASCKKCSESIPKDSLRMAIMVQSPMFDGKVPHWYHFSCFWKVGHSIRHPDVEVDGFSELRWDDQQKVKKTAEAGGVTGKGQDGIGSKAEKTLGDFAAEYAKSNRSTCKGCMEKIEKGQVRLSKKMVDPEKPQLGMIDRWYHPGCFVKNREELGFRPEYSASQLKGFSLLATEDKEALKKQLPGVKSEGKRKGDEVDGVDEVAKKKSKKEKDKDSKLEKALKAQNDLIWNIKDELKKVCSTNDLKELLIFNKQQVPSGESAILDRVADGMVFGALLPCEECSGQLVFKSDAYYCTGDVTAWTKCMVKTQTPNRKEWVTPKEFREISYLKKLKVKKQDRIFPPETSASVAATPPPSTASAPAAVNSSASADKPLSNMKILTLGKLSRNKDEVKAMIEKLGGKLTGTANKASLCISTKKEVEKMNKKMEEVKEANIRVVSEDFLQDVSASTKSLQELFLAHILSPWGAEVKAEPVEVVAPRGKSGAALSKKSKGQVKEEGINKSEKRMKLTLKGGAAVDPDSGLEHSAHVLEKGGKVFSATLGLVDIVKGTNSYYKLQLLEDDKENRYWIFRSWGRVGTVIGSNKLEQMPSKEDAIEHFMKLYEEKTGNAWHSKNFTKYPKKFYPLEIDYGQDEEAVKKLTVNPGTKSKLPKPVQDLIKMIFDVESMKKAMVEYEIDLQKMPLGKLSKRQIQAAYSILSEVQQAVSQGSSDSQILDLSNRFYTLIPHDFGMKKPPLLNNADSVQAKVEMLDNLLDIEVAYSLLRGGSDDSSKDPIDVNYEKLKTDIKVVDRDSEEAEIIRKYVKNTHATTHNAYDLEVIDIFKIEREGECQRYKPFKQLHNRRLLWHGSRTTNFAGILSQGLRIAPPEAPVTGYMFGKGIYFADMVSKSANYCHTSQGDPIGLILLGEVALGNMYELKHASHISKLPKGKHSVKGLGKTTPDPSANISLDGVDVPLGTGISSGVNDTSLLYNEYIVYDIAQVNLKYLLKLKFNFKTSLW
Sequence of PARP1 WT;HPF1 (Q9NWY4 whole entry, chain 2 of 2): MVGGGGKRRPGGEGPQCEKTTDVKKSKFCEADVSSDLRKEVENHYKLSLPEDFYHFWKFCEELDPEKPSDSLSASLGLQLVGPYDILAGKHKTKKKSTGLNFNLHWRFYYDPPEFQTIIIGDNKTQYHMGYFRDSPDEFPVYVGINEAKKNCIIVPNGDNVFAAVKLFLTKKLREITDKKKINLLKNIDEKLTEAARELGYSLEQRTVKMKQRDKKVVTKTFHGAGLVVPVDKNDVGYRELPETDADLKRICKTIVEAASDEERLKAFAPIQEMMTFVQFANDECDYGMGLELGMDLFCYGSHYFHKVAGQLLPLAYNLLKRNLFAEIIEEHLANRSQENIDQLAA

PARP1 R865A = PARP1 R865A (UniProt P09874 1-1014, R865A); experiment: fluorescence polarization; without HPF1; P=0.000039; SPR: 25 mM HEPES pH 7.4, 250 mM NaCl, 0.1 mM TCEP, 1 mM EDTA, 0.05% Tween20 (+/- 5 uM EB47); FP: 5 nM probe, 1.56-400 nM PARP1, buffer not stated; HXMS: 10 mM HEPES pD 7.0, 150 mM NaCl, RT; settings: protein: recombinant; tags: N-terminal His6; label: internal FAM (GCTGAGC FAM-TTCTGG...); dumbbell, two hairpins, central nick
Sequence of PARP1 R865A (P09874 whole entry R865A): as the sequence (P09874 whole entry, chain 1 of 2) above, with R865A counted along it

PARP1 R865A;HPF1 = PARP1 R865A;HPF1 (human?;human, UniProt P09874;Q9NWY4 1-1014;1-346, R865A|); experiment: fluorescence polarization; 20 uM HPF1; no further increase vs R865A alone (P=0.087, ns); SPR: 25 mM HEPES pH 7.4, 250 mM NaCl, 0.1 mM TCEP, 1 mM EDTA, 0.05% Tween20 (+/- 5 uM EB47); FP: 5 nM probe, 1.56-400 nM PARP1, buffer not stated; HXMS: 10 mM HEPES pD 7.0, 150 mM NaCl, RT; settings: protein: recombinant;recombinant; tags: N-terminal His6;none (SMT sumo-like His-tag removed with ULP1); copies: 1;1; label: internal FAM (GCTGAGC FAM-TTCTGG...); dumbbell, two hairpins, central nick
Sequence of PARP1 R865A;HPF1 (P09874 whole entry R865A, chain 1 of 2): as the sequence (P09874 whole entry, chain 1 of 2) above, with R865A counted along it
Sequence of PARP1 R865A;HPF1 (Q9NWY4 whole entry, chain 2 of 2): as the sequence (Q9NWY4 whole entry, chain 2 of 2) above

PARP1 WT = PARP1 WT (UniProt P09874 1-1014); experiment: fluorescence polarization; without HPF1; Kd only in Fig. 6f; SPR: 25 mM HEPES pH 7.4, 250 mM NaCl, 0.1 mM TCEP, 1 mM EDTA, 0.05% Tween20 (+/- 5 uM EB47); FP: 5 nM probe, 1.56-400 nM PARP1, buffer not stated; HXMS: 10 mM HEPES pD 7.0, 150 mM NaCl, RT; settings: protein: recombinant; tags: N-terminal His6; label: internal FAM (GCTGAGC FAM-TTCTGG...); dumbbell, two hairpins, central nick
Sequence of PARP1 WT (P09874 whole entry): as the sequence (P09874 whole entry, chain 1 of 2) above

GCTGAGCTTCTGGTGAAGCTCAGCTCGCGGCAGCTGGTGCTGCCGCGA (structured_DNA) [FAM dumbbell with central nick (FP)]
binding signal (PARP1 WT;HPF1): ~2 fold higher affinity than PARP1 WT alone | binding signal (PARP1 R865A): 4 fold higher affinity than PARP1 WT | binding result (PARP1 R865A;HPF1): binds | binding result (PARP1 WT): binds
